Target: T1, GST–Ubp3 (UBP3 cloned into pGEX4T, PEN253) (S. cerevisiae, UniProt Q01477 1-912)
T1 sequence (looked up): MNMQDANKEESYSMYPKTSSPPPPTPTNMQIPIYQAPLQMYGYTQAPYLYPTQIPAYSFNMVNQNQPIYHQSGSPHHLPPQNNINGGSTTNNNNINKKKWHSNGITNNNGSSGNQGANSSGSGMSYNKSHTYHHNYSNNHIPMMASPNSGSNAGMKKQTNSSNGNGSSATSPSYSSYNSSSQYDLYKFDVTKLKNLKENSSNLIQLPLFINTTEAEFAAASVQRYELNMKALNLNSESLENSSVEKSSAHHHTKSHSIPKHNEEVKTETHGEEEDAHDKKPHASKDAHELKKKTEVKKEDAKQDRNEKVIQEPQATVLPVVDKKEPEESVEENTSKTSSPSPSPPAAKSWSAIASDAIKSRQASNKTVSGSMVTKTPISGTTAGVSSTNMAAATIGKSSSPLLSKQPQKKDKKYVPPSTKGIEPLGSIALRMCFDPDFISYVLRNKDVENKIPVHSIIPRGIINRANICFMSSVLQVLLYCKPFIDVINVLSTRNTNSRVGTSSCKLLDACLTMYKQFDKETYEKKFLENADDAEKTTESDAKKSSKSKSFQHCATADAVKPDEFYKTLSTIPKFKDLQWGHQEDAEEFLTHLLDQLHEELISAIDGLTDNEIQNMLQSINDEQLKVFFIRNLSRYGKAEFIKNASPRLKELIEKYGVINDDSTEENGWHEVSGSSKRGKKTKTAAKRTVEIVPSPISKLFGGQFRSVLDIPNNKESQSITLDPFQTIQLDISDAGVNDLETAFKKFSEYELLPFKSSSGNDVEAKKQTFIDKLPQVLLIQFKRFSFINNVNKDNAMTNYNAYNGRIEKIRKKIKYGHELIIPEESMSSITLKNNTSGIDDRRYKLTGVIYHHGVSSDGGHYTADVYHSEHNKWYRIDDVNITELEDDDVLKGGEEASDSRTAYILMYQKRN
Assay: pull-down

binding result: binds
B1: His-tagged Hog1 (enzyme, S. cerevisiae, UniProt P32485 1-435, looked up)
chain: MTTNEEFIRTQIFGTVFEITNRYNDLNPVGMGAFGLVCSATDTLTSQPVAIKKIMKPFSTAVLAKRTYRELKLLKHLRHENLICLQDIFLSPLEDIYFVTELQGTDLHRLLQTRPLEKQFVQYFLYQILRGLKYVHSAGVIHRDLKPSNILINENCDLKICDFGLARIQDPQMTGYVSTRYYRAPEIMLTWQKYDVEVDIWSAGCIFAEMIEGKPLFPGKDHVHQFSIITDLLGSPPKDVINTICSENTLKFVTSLPHRDPIPFSERFKTVEPDAVDLLEKMLVFDPKKRITAADALAHPYSAPYHDPTDEPVADAKFDWHFNDADLPVDTWRVMMYSEILDFHKIGGSDGQIDISATFDDQVAAATAAAAQAQAQAQAQVQLNMAAHSHNGAGTTGNDHSDIAGGNKVSDHVAANDTITDYGNQAIQYANEFQQ

— article PMC3160652 (The EMBO Journal, 2011)
